Laboratory results from US8735553 (BEIGENE SWITZERLAND, dated 2014).
Residue numbers refer to the chain shown, from its start. Numbers in names are those of the source. Each block holds one binder with its values, some of them ahead of it.

How the values were obtained:
[1] = biological target: T1, wild-type human PD-1 recombinant protein (PD-1/His or PD-1/Fc, not said which) (human, UniProt Q15116 21-168); experiment: ELISA on coated recombinant PD-1; cell carries the * mark (Fab version); ELISA cell marked *
T1 construct: also called WT PD-1
T1 sequence (Q15116 21-168 limits assumed): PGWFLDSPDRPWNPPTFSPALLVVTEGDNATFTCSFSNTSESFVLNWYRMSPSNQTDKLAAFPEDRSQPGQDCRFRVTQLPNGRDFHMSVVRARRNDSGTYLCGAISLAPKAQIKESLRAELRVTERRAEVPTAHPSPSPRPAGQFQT

[2] = biological target: T2, human PD-1 expressed on cells (human, UniProt Q15116 25-288); experiment: FACS on PD-1-expressing cells
T2 construct: whole, on cells; also called HuT78/PD-1; NK92MI/PD-1
T2 sequence (Q15116 25-288): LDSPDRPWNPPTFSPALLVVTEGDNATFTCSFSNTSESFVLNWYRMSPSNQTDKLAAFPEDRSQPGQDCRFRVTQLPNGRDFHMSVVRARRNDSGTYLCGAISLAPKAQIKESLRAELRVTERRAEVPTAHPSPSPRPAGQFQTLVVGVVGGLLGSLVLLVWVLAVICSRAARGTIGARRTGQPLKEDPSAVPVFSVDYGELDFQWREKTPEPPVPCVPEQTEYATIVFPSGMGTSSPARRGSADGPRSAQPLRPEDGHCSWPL

PD-1-EC/His = biological target: T3, PD-1-EC/His (human, UniProt Q15116 21-168); experiment: SPR (BIAcore T-200), human PD-1/His coupled to CM5 chip, Fab injected
T3 construct: AA 1-168 includes the signal peptide; also called PD-1/His; human PD-1/His
T3 sequence (Q15116 21-168): as the sequence (Q15116 21-168 limits assumed) above
Experimental: For affinity determinations of anti-PD-1 Fabs, SPR assays were used with the BIAcore™ T-200 instrument (GE Life Sciences). […] Association rates ($kon$) and dissociation rates ($koff$) were calculated using the one-to-one Langmuir binding model (BIA Evaluation Software, GE Life Sciences). The equilibrium dissociation constant (K_d) was calculated as the ratio $koff/kon$.

[3] = biological target: T2, human PD-1 expressed on cells; experiment: cell-based or functional assay
[4] = biological target: P3Z chimeric PD-1 receptor (human); experiment: cell-based or functional assay
P3Z chimeric PD-1 receptor (human), sequence (chain, as listed by the source mutant limits assumed): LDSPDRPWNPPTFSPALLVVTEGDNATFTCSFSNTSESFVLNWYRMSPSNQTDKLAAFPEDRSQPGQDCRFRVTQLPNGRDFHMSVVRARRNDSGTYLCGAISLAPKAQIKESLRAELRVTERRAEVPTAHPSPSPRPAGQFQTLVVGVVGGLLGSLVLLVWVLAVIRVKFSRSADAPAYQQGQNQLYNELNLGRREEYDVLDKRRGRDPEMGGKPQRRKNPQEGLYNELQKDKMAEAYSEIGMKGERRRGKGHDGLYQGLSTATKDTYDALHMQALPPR

[5] = biological target: T2, human PD-1 expressed on cells; experiment: cell-based or functional assay; remark: listed apart in the source
[6] = biological target: P3Z chimeric PD-1 receptor (human); experiment: cell-based or functional assay; remark: listed apart in the source
[7] = biological target: T2, human PD-1 expressed on cells; experiment: FACS on PD-1-expressing cells, goat anti-mouse IgG detection
[8] = biological target: T2, human PD-1 expressed on cells; experiment: cell-based or functional assay; remark: listed apart in the source
[9] = biological target: T2, human PD-1 expressed on cells; experiment: cell-based or functional assay; remark: listed apart in the source
[10] = biological target: P3Z chimeric PD-1 receptor (human); experiment: cell-based or functional assay; remark: listed apart in the source
[11] = biological target: T2, human PD-1 expressed on cells; experiment: cell-based or functional assay; remark: listed apart in the source

EC50 [1]: 0.091 µg/mL
B1: hu326-4A3 Fab (Fab, V domains shown)
VH: QVQLVQSGSELKKPGASVKVSCKASGYTFTNYGMNWVRQAPGQGLKWMGWINNNNAEPTYAQDFRGRFVFSLDTSASTAYLQISSLKTEDTAVYYCARDVMDYWGQGTLVTVSS
VL: DIVLTQSPASLAVSPGQRATITCRASESVDNYGYSFMHWYQQKPGQPPKLLIYRASNLESGVPARFSGSGSGTDFTLTINPVEAEDTANYYCQQSKEYPTFGGGTKVEIK
notes: Fab: VH on human IgG2 CH1 (C232S, C233S, Kabat) with C-terminal c-Myc-His8 tag; also called hu326-4A3 (Fab version)

EC50 [2]: 0.165 µg/mL
B2: hu326-3B1 (antibody, V domains shown)
VH: B1 VH with A56G
VL: B1 VL with G72R, E85N
notes: Humanized mAb

Kd (PD-1-EC/His): 1 nM
B3: hu326-3G1 Fab (Fab, V domains shown)
VH: B1 VH with S9P, A56G
VL: B1 VL with G72R, E85N
notes: Fab: VH on human IgG2 CH1 (C232S, C233S, Kabat) with C-terminal c-Myc-His8 tag

IFN-γ secreted, EC50 (NK92MI/PD-1 + SK-MES-1/PD-L1) [3]: 0.4 µg/mL
Inhibition of IL-2 secretion, IC50 (HuT78/P3Z + HEK293/PD-L1) [4]: 0.083 µ/ml
IL-2 release, EC50 (HuT78/PD-1 + HEK293/OS8/PD-L2) [5]: 0.032 µg/mL
Inhibition of IL-2 secretion, IC50 (HuT78/P3Z + HEK293/PD-L2) [6]: 0.02 µg/mL
EC50 [7]: 0.11 µg/mL
IL-2 release, EC50 (HuT78/PD-1 + HEK293/OS8/PD-L1) [8]: 0.083 µg/mL
Assay-2 IL-2 release, IC50 (HuT78/P3Z + HEK293/PD-L1) [10]: 0.11 µg/mL
Assay-2 IL-2 release, Max inhibition (HuT78/P3Z + HEK293/PD-L1) [10]: 99.5%
Assay-1 IL-2 release, EC50 (HuT78/PD-1 + HEK293/OS8/PD-L1) [11]: 0.11 µg/mL
Assay-1 IL-2 release, Top line (HuT78/PD-1 + HEK293/OS8/PD-L1) [11]: 346 pg/mL
B4: murine mAb 317 (antibody, V domains shown)
VH: QVQLKESGPGLVAPSKNLSITCTVSGFSLTSYGVHWIRQPPGKGLEWLGVIWAGGSTNYNSALMSRLSISKDNSRSQVFLRMNSLQTDDTAMYYCARAYGNYWYIDVWGAGTTVTVSS
VL: DIVMTQTPKFLLVSAGDRVTITCKASQSVSNDVAWYQQKPGQSPKLLINYAFHRFTGVPDRFTGSGYGTDFIFTISTVQAEDLAVYFCHQAYSSPYTFGGGTKLEMK
notes: Murine hybridoma antibody; also called mu317
Cytotoxicity of NK92MI/PD-1 cells against SK-MES-1/PD-L1, EC50 [9]: 0.5 µg/mL
